Measured values from patent US20260265360A1, “USE OF ANTI-FAM19A5 ANTAGONISTS FOR TREATING HEARING DISORDERS” (NEURACLE SCIENCE CO., LTD., priority 2023, published 2026).

Key:
[1] = system: noise-induced hearing loss mouse model; test: Dosage effect in noise-induced hearing loss mouse model (ABR threshold); format: in vivo
Experimental: FIGS. 15A, 15B, 15C, 15D, and 15E show the dose-dependent effects of FAM19A5 antagonist administration on ABR threshold in a noise-induced hearing loss mouse model. FIG. 15A provides a schematic of the experimental design. As shown, one day after noise exposure, the animals received varying concentrations of the anti-FAM19A5 antibody (1-30) (i.e., 0 mg/kg, 3 mg/kg, 7 mg/kg, 15 mg/kg, and 30 mg/kg). After noise exposure, control animals received a human anti-IgG antibody (30 mg/kg). ABR threshold was measured at one day after noise exposure and at two weeks after noise exposure. FIG. 15B provides a comparison of ABR threshold for the different treatment groups across a frequency of 0 kHz to 64 kHz at one day after noise exposure. FIG. 15C provides the same data shown in FIG. 15B except as bar graphs. FIG. 15D provides a comparison of ABR threshold for the different treatment groups across a frequency of 0 kHz to 64 kHz at two weeks after noise exposure. FIG. 15E provides the same data shown in […] except as bar graphs. In each of FIGS. 15B-15E, ABR threshold prior to noise exposure is also shown (“BN”). In both FIGS. 15C and 15E, for each of the frequency groups shown, the first bar (from the left) corresponds to pre-noise exposure (“BN”), the second bar corresponds to animal streated with the control anti-IgG antibody (“hIgG”), the third bar corresponds to animals treated with 0 mg/kg of the anti-FAM19A5 antibody, the fourth bar corresponds to animals treated with 3 mg/kg of the anti-FAM19A5 antibody, the fifth bar corresponds to animals treated with 7 mg/kg of the anti-FAM19A5 antibody, the sixth bar corresponds to animals treated with 15 mg/kg of the anti-FAM19A5 antibody, and the last bar corresponds to animals treated with 30 mg/kg of the anti-FAM19A5 antibody.
To assess whether the above-described therapeutic effects of FAM19A5 antagonists on hearing loss is dose dependent, the noise-induced hearing loss mouse model described in Example 3 was used. […] ABR threshold was measured prior to noise exposure, one day after noise exposure, and two weeks after noise exposure.

[2] = system: mouse primary spiral ganglion neurons; test: Reversal of FAM19A5-induced inhibition of neurite outgrowth; format: cell-based; conditions: 10 μM FAM19A5 protein co-treated with 100 nM antibody, 3 DIV
Experimental: Sprial ganglion neuron were cultured in culture media consisting of high-glucose (4.5 mg/mL) DMEM, 0.1 mg/ml penicillin, 0.1 mg/mL streptomycin, N2 supplement, and 10 µg/mL insulin and was designated here as “5K” because in this media, [K+]=5.4 mM. A depolarizing media, designated as “30K,” in which Na was replaced with equimolar K to raise [K] to 30 mM while maintaining osmolarity was also used.
Dissociated spiral ganglion cell cultures were prepared from postnatal day 4-5 (P4-5) cochleae and maintained using a procedure modified from the methods described by Bok et al., J Neurosci 23 (3): 777-87 (2003), which is incorporated herein by reference in its entirety. […]
Neurite outgrowth was quantified by measuring the total length of neurites per neuron. Neurons were stained with NF200 at either 2 or 3 DIV, and neurite lengths were measured using the Fiji (Image J). Individual neurons were manually selected, and neurite lengths were determined using the Simple Neurite Tracer plugin.
Briefly, mouse primary spiral ganglion neurons (cultured and processed as described in Example 11) were treated with a FAM19A5 protein (10 μM) alone or in combination with an anti-FAM19A5 antibody (1-30) (100 nM) at 0 DIV (day in vitro). […] Then, at 3 DIV, the neurons were stained for neurofilament protein (NF200) expression and the average neurite length quantified.

B1: 1-30: anti-FAM19A5 antibody, de-immunized variant of 3-2; VH SEQ ID NO: 235, VL SEQ ID NO: 240 (antibody, V domains shown)
VH: AVTLDESGGGLQTPGGALRLSCKASGFDFESFNMFWVRQAPGKGLEYVSQISSSEEDENYAPAVKGRATISRDNGQSTLYLQMNSLRAEDTGTYYCAKSSYDCPYGHCSSGVDSAGEIDAWGHGTEVIVSS
VL: ALTQPSSVSANPGETVKITCSGGGSEEEQYYYGWYQQKPGSAPVTLIYQDEERPSDIPSRFSGSTSGSTATLTITGVQAGDEADYYCGSWDSEDEDHFGAGTTLTVL
modifications: Low-PI VH, 1-30 VH, 1-17 VH, 1-32 VH, 4-11 VH, 6-10 VH; 1-30 VL
[1]; one day post noise exposure, 15 mg/kg and 30 mg/kg
  effect on ABR threshold by dose: greatest effects
[1]; one day post noise exposure, 1, 3, 7, 15, 30 mg/kg i.v.
  ABR threshold across frequencies: dose-dependent reduction
[1]; two weeks post noise exposure, doses of 7, 15 or 30 mg/kg, many of the frequencies
  ABR threshold: significant reduction
[2]
  neurite growth in FAM19A5-treated neurons: less reduction in neurite growth and comparable to the neurons from the control group
